Values quoted from earlier work in patent US20260265329A1, “POLYPEPTIDE AND DERIVATIVE THEREOF, COMPOSITION, AND USE THEREOF” (HANGZHOU SCIWIND BIOSCIENCES CO., LTD., priority 2023, published 2026).
No end group written: not given here.

What was measured:
[1] = cited from earlier work
[2] = in vivo, background statement; cited from earlier work

Amylin (KCNTATCATQRLANFLVHSSNNFGAILSSTNVGSNTY; not fully specified (C-terminus, bridges); cysteine pairing not given here; UniProt P10997 34-70, looked up) [polypeptide hormone consisting of 37 amino acids, member of the calcitonin protein family]
fibrillation ([1]; background statement): strong tendency towards fibrillation
chemical stability ([1]; pH 7, background statement): chemical instability at pH 7
half-life [2]: short half-life in vivo
